Data on 4 molecules can be found in article PMC10070186, “Unusual peptide-binding proteins guide pyrroloindoline alkaloid formation in crocagin biosynthesis” (Nature Chemistry, 2023).

Common to all, as to conditions: both partners purified
The target of one assay is T1, CgnC (Chondromyces crocatus CM c5).
T1 chain: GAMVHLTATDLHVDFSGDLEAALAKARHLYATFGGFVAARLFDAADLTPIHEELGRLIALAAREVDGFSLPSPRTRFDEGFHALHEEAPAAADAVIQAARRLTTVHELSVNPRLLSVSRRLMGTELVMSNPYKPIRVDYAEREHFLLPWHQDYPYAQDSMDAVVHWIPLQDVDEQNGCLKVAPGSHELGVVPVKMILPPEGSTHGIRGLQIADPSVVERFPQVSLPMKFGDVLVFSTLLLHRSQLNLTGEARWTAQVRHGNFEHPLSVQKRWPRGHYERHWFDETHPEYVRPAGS
Nature of the assay: SEC; size-exclusion chromatography of the single proteins in solution. In general terms: In gel filtration, larger molecules generally elute earlier.

The target in assay [1] is T2, CgnB (Chondromyces crocatus CM c5).
T2 construct: CgnB of the crocagin BGC of Chondromyces crocatus CM c5; Construct details are in the Supplementary Methods; source: purified (HisTrap, His-SUMO removed with TEV protease, Superdex 200)
Nature of the assay: MST; microscale thermophoresis in the presence of a constant, large excess of CgnE (250 µM). (In general: Microscale thermophoresis detects binding through changes in fluorescence in a small temperature gradient.)

For a further assay, the target named is T3, CgnE (Chondromyces crocatus CM c5).
T3 construct: CgnE of the crocagin BGC of Chondromyces crocatus CM c5; Construct details are in the Supplementary Methods; source: purified (HisTrap, His-SUMO removed with TEV protease, Superdex 200)
In words: MST; microscale thermophoresis of two components; which one was titrated is told only in Fig. 3c.

In assay [2] the target is T2, CgnB. The description is as above.
Assay [3] addresses T4, CgnE in the presence of CgnA (400 µM) (Chondromyces crocatus CM c5).
T4 construct: CgnE of Chondromyces crocatus CM c5, as m4; CgnA of Chondromyces crocatus CM c5, 21 amino acids, as m1; also called CgnA-CgnE; source: purified CgnE mixed with 400 µM CgnA
Nature of the assay: MST; microscale thermophoresis in the presence of CgnA (400 µM).

Assay [4] concerns the target T5, CgnB in the presence of CgnA (400 µM) (Chondromyces crocatus CM c5).
T5 construct: CgnB of Chondromyces crocatus CM c5, as m2; CgnA of Chondromyces crocatus CM c5, 21 amino acids, as m1; also called CgnA-CgnB; source: purified CgnB mixed with 400 µM CgnA
The description is as above.

B1: CgnC (enzyme)
chain: GAMVHLTATDLHVDFSGDLEAALAKARHLYATFGGFVAARLFDAADLTPIHEELGRLIALAAREVDGFSLPSPRTRFDEGFHALHEEAPAAADAVIQAARRLTTVHELSVNPRLLSVSRRLMGTELVMSNPYKPIRVDYAEREHFLLPWHQDYPYAQDSMDAVVHWIPLQDVDEQNGCLKVAPGSHELGVVPVKMILPPEGSTHGIRGLQIADPSVVERFPQVSLPMKFGDVLVFSTLLLHRSQLNLTGEARWTAQVRHGNFEHPLSVQKRWPRGHYERHWFDETHPEYVRPAGS
modifications: sequence from Supplementary Table 8 (the excerpt mark inside it is read as contiguous); N-terminal GA is a cloning remnant; dimer by size-exclusion chromatography / sequence from Supplementary Table …
On to B1, for which, in the assay with CgnC, the “stoichiometry N” value stood at 2.

B2: CgnC in the presence of a constant, large excess (250 µM) of CgnE (complex)
chain 1: GAMVHLTATDLHVDFSGDLEAALAKARHLYATFGGFVAARLFDAADLTPIHEELGRLIALAAREVDGFSLPSPRTRFDEGFHALHEEAPAAADAVIQAARRLTTVHELSVNPRLLSVSRRLMGTELVMSNPYKPIRVDYAEREHFLLPWHQDYPYAQDSMDAVVHWIPLQDVDEQNGCLKVAPGSHELGVVPVKMILPPEGSTHGIRGLQIADPSVVERFPQVSLPMKFGDVLVFSTLLLHRSQLNLTGEARWTAQVRHGNFEHPLSVQKRWPRGHYERHWFDETHPEYVRPAGS
chain 2: GMGGRRTIGIRSGEGAIMNASDFYALLRGRGMPVVVDDAEAAAVVSELGFRTVPFEAFDFDSPSEDPALVIVAQMGNVDALHGLWERSGTPLMHLALAKFDGGLSRLRAGLARVLAVDTDAALKRRAEAYEQLFSSASVEIASGEGVLRCHIGDEVEVGNCGDTLEQGFLYSVAEFLEASVVNLEGERSTFWVEGELPFDGFIHLSNSAALKERWGGMLDEFMRRSREGANLVRFADNVIDRLVVGGVDVTSALAGLSQGEERGMAATEFGLGCADAEAAEPFGVNSLLHKSAGGAYIGIGKGLRIPHIDFIARGATIRFIPAAEG
modifications: CgnC is a dimer and CgnE a monomer in solution when alone; stoichiometry of the complex is not given
Take B2: in the assay with CgnB [1], the Kd came to 28 µM.

B3: CgnC (enzyme)
chain: GAMVHLTATDLHVDFSGDLEAALAKARHLYATFGGFVAARLFDAADLTPIHEELGRLIALAAREVDGFSLPSPRTRFDEGFHALHEEAPAAADAVIQAARRLTTVHELSVNPRLLSVSRRLMGTELVMSNPYKPIRVDYAEREHFLLPWHQDYPYAQDSMDAVVHWIPLQDVDEQNGCLKVAPGSHELGVVPVKMILPPEGSTHGIRGLQIADPSVVERFPQVSLPMKFGDVLVFSTLLLHRSQLNLTGEARWTAQVRHGNFEHPLSVQKRWPRGHYERHWFDETHPEYVRPAGS
modifications: sequence from Supplementary Table 8 (the excerpt mark inside it is read as contiguous); N-terminal GA is a cloning remnant; dimer by size-exclusion chromatography
On to B3, for which the Kd in the assay with CgnE is around 1 µM; in the assay with CgnB [2], around 6 µM; in assay [4], around 100 nM. In assay [3], the “fold increase of the CgnC–CgnE affinity on addition of CgnA (400 µM)” value stood at 2 fold.
In the case of MKKTIKQISAGDRSKKGN [CgnA leader peptide (CgnA^LP)], binding with CgnE was characterised by a dissociation constant (Kd) of 514 µM. Besides, the “fold reduction in affinity compared to CgnA” value in the assay with CgnB [2] came to 8 fold.

Usually stoichiometry N stands for a count of units in the complex or per binding partner. As a reminder, the Kd is the free concentration of one partner at which half of the binding sites on the other are occupied at equilibrium, for simple one-to-one binding.
